Molecular target: T1, human epithelial cell adhesion molecule (EpCAM) on CHO–EpCAM cells (Homo sapiens, UniProt P16422)
T1 construct: BC014785.1, expressed on the surface of CHO cells; source: CHO-X cells, lentiviral transduction, doxycycline-inducible, on the cell surface (clone SP1D12)
Experiment: flow cytometry on cells; self-labeling: CHO–EpCAM cells transduced with the HA-tagged scFv, cultured 3 days with or without doxycycline, stained with anti-HA-PE
Conditions: partners not purified

T1 sequence (P16422 24-314): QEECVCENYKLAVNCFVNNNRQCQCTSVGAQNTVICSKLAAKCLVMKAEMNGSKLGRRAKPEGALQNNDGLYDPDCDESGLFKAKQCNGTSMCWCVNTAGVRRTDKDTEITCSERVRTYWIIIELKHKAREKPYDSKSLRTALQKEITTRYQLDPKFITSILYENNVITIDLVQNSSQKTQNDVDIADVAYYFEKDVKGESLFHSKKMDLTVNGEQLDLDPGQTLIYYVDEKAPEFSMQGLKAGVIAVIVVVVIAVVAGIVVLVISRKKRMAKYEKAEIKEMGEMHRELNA

B1: known anti-EpCAM scFv with a C-terminal HA tag (scFv, V domains shown)
VH: VQLLEQSGAELVRPGTSVKISCKASGYAFTNYWLGWVKQRPGHGLEWIGDIFPGSGNIHYNEKFKGKATLTADKSSSTAYMQLSSLTFEDSAVYFCARLRNWDEPMDYWGQGTTVTVSS
VL: ELVMTQSPSSLTVTAGEKVTMSCKSSQSLLNSGNQKNYLTWYQQKPGQPPKLLIYWASTRESGVPDRFTGSGSGTDFTLTISSVQAEDLAVYYCQNDYSYPLTFGAGTKLEIK
notes: Cloned into the pSF lentivector used for the scFv library; also called control anti-EpCAM scFv; source: CHO–EpCAM cells, lentiviral transduction, secreted by the same cells that carry the target; not shown: HA, C-terminal, kept
fold increase in self-labeling signal (with against without doxycycline): > 100 fold

From PMC7939478, “Development of a novel mammalian display system for selection of antibodies against membrane proteins” (The Journal of Biological Chemistry, 2020)
